According to patent publication US20080103095A1:

Target: firefly luciferase (firefly) [luciferase: P08659]
Experiment: cell-based or functional assay

firefly luciferase (firefly) [luciferase: P08659], sequence (P08659 whole entry): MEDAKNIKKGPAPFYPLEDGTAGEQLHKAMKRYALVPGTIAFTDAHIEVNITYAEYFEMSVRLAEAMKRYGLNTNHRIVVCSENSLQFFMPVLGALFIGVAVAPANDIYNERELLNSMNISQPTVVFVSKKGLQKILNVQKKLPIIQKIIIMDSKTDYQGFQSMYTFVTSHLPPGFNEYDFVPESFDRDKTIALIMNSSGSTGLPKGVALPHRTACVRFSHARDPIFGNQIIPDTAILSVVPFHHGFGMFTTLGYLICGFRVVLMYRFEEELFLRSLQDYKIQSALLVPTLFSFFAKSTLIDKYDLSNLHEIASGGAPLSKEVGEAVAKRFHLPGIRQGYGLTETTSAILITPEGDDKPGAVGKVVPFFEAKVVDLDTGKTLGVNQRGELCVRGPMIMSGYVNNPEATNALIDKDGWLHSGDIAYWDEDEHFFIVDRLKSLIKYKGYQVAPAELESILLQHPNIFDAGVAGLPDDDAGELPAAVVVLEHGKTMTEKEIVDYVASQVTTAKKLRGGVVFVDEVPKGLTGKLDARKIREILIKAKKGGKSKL

Row | percent protein aggregation (light scattering, OD 320 nm, 43° C 30 min; luciferase heated alone = 100%) | Substance
1 | 40% | grp170 as used in Examples 6 and 8 (source and species not stated)
2 | 20% | hsp110 as used in Examples 6, 8 and 10 (source and species not stated)
